This is an account of results in the supplement of paper PMC7125110.

In general, kcat refers to the number of substrate molecules converted per active site and unit of time at saturation. What is called KM is the concentration of substrate that gives half-maximal velocity.

± gives the standard error. For some of these results: Variants at the floor of the assay were thinned out.

The labels stand for the following.
B1: glmS ribozyme (parent)
chain: AUAAAAGCGCCAGAACUACAGAAAUGUAGUUGACGAGGAGGAGGUUUAUCGAAUUUUCGGCGGAUGCCUCCAAA

Conditions in all cases: with glucosamine-6-phosphate
Variants of B1 are the subject of series [1]. As to the kind of experiment: kcat; higher = faster cleavage; RNA array. In short, it runs like this: (§1)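 Over ~14 h at 37 °C, tiles were imaged as glucosamine-6-phosphate (40 μM to 10 mM) in HEPES/KCl/Mg(OAc)2 buffer flowed across sequenced MiSeq chips. The chips carried barcoded ribozyme variants transcribed in situ by E. coli RNA polymerase and tracked with a hybridised Cy3 probe. After normalisation to baseline and to non-cleaving reference variants, one- or two-exponential decay fits of per-tile medians gave kobs. kcat and KM followed from weighted Michaelis–Menten fits across concentrations.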

The variants in series [2] derive from B1. Nature of the series: KM; higher = weaker cofactor use; RNA array. The essentials: as §1
In series [3] the parent is B1. Nature of the series: self-cleavage kobs at 40 uM GlcN6P; higher = faster cleavage; RNA array. In short, it runs like this:
as §1

Variants of B1 are the subject of series [4]. Nature of the series: self-cleavage kobs at 160 uM GlcN6P; higher = faster cleavage; RNA array. In short, it runs like this:
as §1

The variants in series [5] derive from B1. Nature of the series: self-cleavage kobs at 640 uM GlcN6P; higher = faster cleavage; RNA array. The essentials: as §1
In series [6] the parent is B1. As to the kind of experiment: self-cleavage kobs at 2500 uM GlcN6P; higher = faster cleavage; RNA array. In short, it runs like this:
as §1

In series [7] the parent is B1. Nature of the series: self-cleavage kobs at 10000 uM GlcN6P; higher = faster cleavage; RNA array. In short, it runs like this:
as §1

With G13U U47A, the kcat with glucosamine-6-phosphate [1] is 0.00106 ± 0.00021 s⁻¹. Besides, in the series with glucosamine-6-phosphate [2], the KM worked out at 4310 ± 1300 µM. Further, the “self-cleavage kobs at 40 uM GlcN6P” value in the series with glucosamine-6-phosphate [3] worked out at 2.95e-05 ± 1.5e-05 s⁻¹. Moreover, the “self-cleavage kobs at 160 uM GlcN6P” value with glucosamine-6-phosphate [4] turned out to be 3.53e-05 ± 1.3e-05 s⁻¹. Besides, the “self-cleavage kobs at 640 uM GlcN6P” value with glucosamine-6-phosphate [5] was found to be 0.000144 ± 1.5e-05 s⁻¹. The “self-cleavage kobs at 2500 uM GlcN6P” value in the series with glucosamine-6-phosphate [6] was 0.000332 ± 5e-05 s⁻¹. Moreover, in the series with glucosamine-6-phosphate [7], the “self-cleavage kobs at 10000 uM GlcN6P” value came out at 0.000776 ± 8.7e-05 s⁻¹.

In the case of A14C G51A A53U G59U C68U, in the series with glucosamine-6-phosphate [1], the kcat worked out at 3.12e-05 ± 1.2e-05 s⁻¹.

On to U30A A52G, for which the kcat with glucosamine-6-phosphate [1] was determined as 0.00117 ± 0.00025 s⁻¹. Besides, the KM with glucosamine-6-phosphate [2] was 5730 ± 1500 µM. Besides, the “self-cleavage kobs at 160 uM GlcN6P” value with glucosamine-6-phosphate [4] amounted to 4.07e-05 ± 1.7e-05 s⁻¹. For the same variant, in the series with glucosamine-6-phosphate [5], the “self-cleavage kobs at 640 uM GlcN6P” value was 0.000114 ± 1.2e-05 s⁻¹. The “self-cleavage kobs at 2500 uM GlcN6P” value with glucosamine-6-phosphate [6] was found to be 0.00054 ± 0.00022 s⁻¹. Further, in the series with glucosamine-6-phosphate [7], the “self-cleavage kobs at 10000 uM GlcN6P” value turned out to be 0.000737 ± 0.00012 s⁻¹.

In the case of G35U U55C, in the series with glucosamine-6-phosphate [1], the kcat is under 1e-05 s⁻¹. Besides, the “self-cleavage kobs at 40 uM GlcN6P” value with glucosamine-6-phosphate [3] is under 1e-05 s⁻¹. The “self-cleavage kobs at 160 uM GlcN6P” value with glucosamine-6-phosphate [4] was under 1e-05 s⁻¹. Also, the “self-cleavage kobs at 2500 uM GlcN6P” value with glucosamine-6-phosphate [6] was under 1e-05 s⁻¹. Further, the “self-cleavage kobs at 10000 uM GlcN6P” value in the series with glucosamine-6-phosphate [7] is under 1e-05 s⁻¹.

U30A C58G: the kcat with glucosamine-6-phosphate [1] came to 5.56e-05 ± 1.8e-05 s⁻¹. Also, the “self-cleavage kobs at 2500 uM GlcN6P” value with glucosamine-6-phosphate [6] turned out to be 8.28e-05 ± 2.5e-05 s⁻¹. In the series with glucosamine-6-phosphate [7], the “self-cleavage kobs at 10000 uM GlcN6P” value stood at 4.77e-05 ± 1.1e-05 s⁻¹.

As for A12C A52G, in the series with glucosamine-6-phosphate [1], the kcat is 0.000882 ± 0.00021 s⁻¹. The KM in the series with glucosamine-6-phosphate [2] turned out to be 2290 ± 880 µM. Further, in the series with glucosamine-6-phosphate [3], the “self-cleavage kobs at 40 uM GlcN6P” value was 2.37e-05 ± 1e-05 s⁻¹. The “self-cleavage kobs at 160 uM GlcN6P” value with glucosamine-6-phosphate [4] is 4.98e-05 ± 1.3e-05 s⁻¹. In the series with glucosamine-6-phosphate [5], the “self-cleavage kobs at 640 uM GlcN6P” value is 0.000216 ± 2.4e-05 s⁻¹. The “self-cleavage kobs at 2500 uM GlcN6P” value with glucosamine-6-phosphate [6] came out at 0.000359 ± 6.3e-05 s⁻¹. The “self-cleavage kobs at 10000 uM GlcN6P” value with glucosamine-6-phosphate [7] was found to be 0.00082 ± 0.00011 s⁻¹.

As for A6G A15U, the kcat with glucosamine-6-phosphate [1] stood at 7.69e-05 ± 9.2e-06 s⁻¹. In the series with glucosamine-6-phosphate [3], the “self-cleavage kobs at 40 uM GlcN6P” value was under 1e-05 s⁻¹. In addition, in the series with glucosamine-6-phosphate [5], the “self-cleavage kobs at 640 uM GlcN6P” value stood at 2.52e-05 ± 1e-05 s⁻¹. In addition, the “self-cleavage kobs at 2500 uM GlcN6P” value with glucosamine-6-phosphate [6] was found to be 7.01e-05 ± 1.2e-05 s⁻¹. Moreover, the “self-cleavage kobs at 10000 uM GlcN6P” value in the series with glucosamine-6-phosphate [7] was 6.82e-05 ± 6.2e-06 s⁻¹.

U30A A36U: in the series with glucosamine-6-phosphate [1], the kcat is under 1e-05 s⁻¹. The “self-cleavage kobs at 640 uM GlcN6P” value with glucosamine-6-phosphate [5] was under 1e-05 s⁻¹.

Take C16G A39C U54G: the kcat with glucosamine-6-phosphate [1] worked out at 0.00043 ± 5.6e-05 s⁻¹. Besides, the KM with glucosamine-6-phosphate [2] turned out to be 1500 ± 410 µM. For the same variant, in the series with glucosamine-6-phosphate [5], the “self-cleavage kobs at 640 uM GlcN6P” value was found to be 0.000133 ± 2.1e-05 s⁻¹. Moreover, in the series with glucosamine-6-phosphate [6], the “self-cleavage kobs at 2500 uM GlcN6P” value was 0.000227 ± 5.8e-05 s⁻¹. Also, the “self-cleavage kobs at 10000 uM GlcN6P” value in the series with glucosamine-6-phosphate [7] is 0.000394 ± 6e-05 s⁻¹.

For the variant C34G C50G G62A, the kcat with glucosamine-6-phosphate [1] was 2.47e-05 ± 3.6e-06 s⁻¹.

As to G40A U46C, the kcat in the series with glucosamine-6-phosphate [1] stood at 0.00192 ± 0.00051 s⁻¹. Further, in the series with glucosamine-6-phosphate [2], the KM is 1280 ± 450 µM. The “self-cleavage kobs at 40 uM GlcN6P” value with glucosamine-6-phosphate [3] was determined as 7.21e-05 ± 1.4e-05 s⁻¹. Also, the “self-cleavage kobs at 160 uM GlcN6P” value with glucosamine-6-phosphate [4] was 0.000173 ± 3.9e-05 s⁻¹. Further, the “self-cleavage kobs at 640 uM GlcN6P” value with glucosamine-6-phosphate [5] turned out to be 0.000699 ± 0.00012 s⁻¹. The “self-cleavage kobs at 2500 uM GlcN6P” value with glucosamine-6-phosphate [6] stood at 0.00107 ± 0.00036 s⁻¹. Moreover, in the series with glucosamine-6-phosphate [7], the “self-cleavage kobs at 10000 uM GlcN6P” value worked out at 0.00192 ± 0.00054 s⁻¹.

C16U U46C: the kcat with glucosamine-6-phosphate [1] was found to be 0.0025 ± 0.00034 s⁻¹. Moreover, in the series with glucosamine-6-phosphate [2], the KM came to 1320 ± 290 µM. The “self-cleavage kobs at 40 uM GlcN6P” value in the series with glucosamine-6-phosphate [3] came out at 7.03e-05 ± 1.7e-05 s⁻¹. For the same variant, the “self-cleavage kobs at 160 uM GlcN6P” value with glucosamine-6-phosphate [4] is 0.000295 ± 4.9e-05 s⁻¹. In addition, the “self-cleavage kobs at 640 uM GlcN6P” value in the series with glucosamine-6-phosphate [5] was determined as 0.000646 ± 0.00017 s⁻¹. Besides, the “self-cleavage kobs at 2500 uM GlcN6P” value with glucosamine-6-phosphate [6] worked out at 0.00192 ± 0.00029 s⁻¹. Further, the “self-cleavage kobs at 10000 uM GlcN6P” value with glucosamine-6-phosphate [7] came out at 0.00208 ± 0.00033 s⁻¹.

As to U31G U47G, the kcat in the series with glucosamine-6-phosphate [1] was 0.00226 ± 0.00055 s⁻¹. In addition, the KM in the series with glucosamine-6-phosphate [2] is 1880 ± 720 µM. For the same variant, the “self-cleavage kobs at 40 uM GlcN6P” value with glucosamine-6-phosphate [3] was 7.25e-05 ± 1.9e-05 s⁻¹. The “self-cleavage kobs at 160 uM GlcN6P” value in the series with glucosamine-6-phosphate [4] turned out to be 0.000127 ± 3.3e-05 s⁻¹. Moreover, the “self-cleavage kobs at 640 uM GlcN6P” value in the series with glucosamine-6-phosphate [5] was found to be 0.000663 ± 0.00011 s⁻¹. The “self-cleavage kobs at 2500 uM GlcN6P” value with glucosamine-6-phosphate [6] came to 0.0016 ± 0.00031 s⁻¹. For the same variant, in the series with glucosamine-6-phosphate [7], the “self-cleavage kobs at 10000 uM GlcN6P” value is 0.00176 ± 0.00028 s⁻¹.

On to C16A U54A, for which, in the series with glucosamine-6-phosphate [1], the kcat amounted to 0.0017 ± 0.00051 s⁻¹. Besides, the KM in the series with glucosamine-6-phosphate [2] amounted to 2150 ± 940 µM. Moreover, the “self-cleavage kobs at 40 uM GlcN6P” value with glucosamine-6-phosphate [3] is 5.13e-05 ± 1.3e-05 s⁻¹. In the series with glucosamine-6-phosphate [4], the “self-cleavage kobs at 160 uM GlcN6P” value amounted to 0.000136 ± 2.6e-05 s⁻¹. Moreover, the “self-cleavage kobs at 640 uM GlcN6P” value in the series with glucosamine-6-phosphate [5] was 0.000351 ± 4.9e-05 s⁻¹. Further, the “self-cleavage kobs at 2500 uM GlcN6P” value with glucosamine-6-phosphate [6] came to 0.00076 ± 0.00015 s⁻¹. Besides, in the series with glucosamine-6-phosphate [7], the “self-cleavage kobs at 10000 uM GlcN6P” value stood at 0.00169 ± 0.00028 s⁻¹.

As for G51U U65G G66C, in the series with glucosamine-6-phosphate [1], the kcat is under 1e-05 s⁻¹. Also, the “self-cleavage kobs at 640 uM GlcN6P” value with glucosamine-6-phosphate [5] is under 1e-05 s⁻¹. Moreover, the “self-cleavage kobs at 10000 uM GlcN6P” value with glucosamine-6-phosphate [7] was under 1e-05 s⁻¹.
